Results as given in patent US9611303B2, “Modified biotin-binding protein” (Japan Tobacco Inc., priority 2009, dated 2017).
Substitutions are numbered along the chain they refer to. Names and notes keep the numbering of the source. Values joined by “and” are separate entries in the source; they are usually repeats but may differ in a detail not shown here. Identical values can stand only once. “Also recorded” adds a separate entry of the source.

B1: TM2 A66R-V113R: TM2 with 66th alanine and 113th valine replaced with arginine (protein)
chain: MSDVQSSLTGTWYNELNSKMELTANKDGTLTGKYLSKVGDVYVPYPLSGRYNLQPPAGQGVALGWRVSWENSKIHSATTWSGQFFSESSPVILTQWLLSSSTARGDVWESTLRGNDSFTKTAPTEQQIAHAQLHCRAPRLK
B2: TM2 L97T: TM2 in which the 97th leucine was replaced with threonine (protein)
chain: B1 chain with R66A, L97T, R113V
B3: TM2 W108K: TM2 in which the 108th tryptophan was replaced with lysine (protein)
chain: B1 chain with R66A, W108K, R113V
B4: TM2 L97T-V113R: TM2 with 97th leucine replaced with threonine and 113th valine with arginine (protein)
chain: B1 chain with R66A, L97T
B5: TM2 N14A: TM2 in which the 14th asparagine was replaced with alanine (protein)
chain: B1 chain with N14A, R66A, R113V
B6: TM2 A66R-L97T: TM2 double mutant A66R and L97T; not in the list of 30 forms, vector named in b302 (protein)
chain: B1 chain with L97T, R113V
B7: TM2 W69K: TM2 in which the 69th tryptophan was replaced with lysine (protein)
chain: B1 chain with R66A, W69K, R113V
B8: TM2 W108E: TM2 in which the 108th tryptophan was replaced with glutamic acid (protein)
chain: B1 chain with R66A, W108E, R113V
B9: TM2 V113R: TM2 in which the 113th valine was replaced with arginine (protein)
chain: B1 chain with R66A
B10: TM2 A66R-L97T-V113R: TM2 with A66R, L97T and V113R replacements (protein)
chain: B1 chain with L97T
B11: TM2 A66R: TM2 in which the 66th alanine was replaced with arginine (protein)
chain: B1 chain with R113V

assay: Purification of LATM2 with biotin-agarose; assay type: binding; conditions: not given
Protocol: Purification with biotin-agarose (manufactured by Sigma-Aldrich Corp.) was performed by the following procedure. After induced expression of 25 mL of a culture solution of E. coli for each LATM2, the E. coli cells were suspended in 1.5 mL of a 100 mM potassium phosphate buffer (pH 7.0), and then sonicated. To the supernatant of the disrupted cells. 400 μL of biotin-agarose was added, which was followed by upside-down mixing for 1 hr. […]
In TM2 S36A-T78A-D116A, the E. coli cells were suspended in 1.5 mL of 50 mM CAPS (pH 12) containing 50 mM NaCl, and then sonicated. To the disrupted cells, 400 μL of biotin-agarose was added, which was followed by upside-down mixing for 1 hr. The column was sufficiently washed with 50 mM CAPS (pH 12) containing 500 mM NaCl, and elution was then performed with 1 mL of PBS (pH 7.4) containing 10 mM biotin.
In TM2 S36A-D116A, the E. coli cells were suspended in 1.5 mL of a 100 mM potassium phosphate buffer (pH 4.0), and then sonicated. To the pupernatant of the disrupted cells, 400 μL of biotin-agarose was added. Washing was performed with a 100 mM potassium phosphate buffer (pH 4) containing 500 mM NaCl, and elution was performed with 1 mL of PBS (pH 7) containing 10 mM biotin. Biotin binding to LATM2 that has been eluted with an excess amount of biotin was removed by dialysis with a 20 mM potassium phosphate buffer overnight.
(§1) The recovery rate in Table 2 was calculated by dividing the amount of LATM2 protein after purification by the amount of LATM2 protein before purification and was expressed by percent by multiplying the quotient by 100. The degree of purification was the ratio of the amount of LATM2 protein to the total amount of proteins in the purified fraction and was expressed by percent by multiplying the ratio by 100. The recovery rates and the degrees of purification in biotin-agarose were the results after binding at pH 7 and elution with an excess amount of biotin.

Molecule	binding to biotin-agarose	elution from biotin-agarose with an excess amount of biotin
B1	did not bind	
B2	bound to biotin-agarose	not eluted

same assay, conditions: Biotin-agarose, binding at pH 7, recovery with 10 mM biotin

Molecule	Recover rate (%)
B3	95
B4	70
B5	50
B6	80
B1	0
B2	0
B7	50
B8	95
B9	30
B10	30
B11	50

same assay, conditions: Biotin-agarose, elution with acetic acid

Molecule	recover rate by elution with acetic acid
B7	recover rate: 95%

same assay, conditions: binding at pH 7, recovery with 10 mM biotin; FT = flow-through

Molecule	Note (Biotin-agarose)
B1	To FT
B2	not eluted

assay: Purification of LATM2 with 2-iminobiotin-agarose; assay type: binding; conditions: not given
Protocol: LATM2 was purified through a column charged with 2-iminobiotin-agarose (manufactured by Sigma-Aldrich Corp.) in accordance with the method by Hofmann, et al., (1980). IPTG was added to 25 mL of a culture solution of E. coli transformed with each LATM2 in a final concentration of 1 mM to induce expression. The E. coli cells were collected by centrifugation, suspended in 1.5 mL of 50 mM CAPS (pH 12) containing 50 mM NaCl, and then sonicated. To the supernatant of the disrupted cells, 500 μL of 2-iminobiotin-agarose was added, which was then packed in a column. The column was sufficiently washed with 50 mM CAPS (pH 12) containing 500 mM NaCl, and elution was then performed with 50 mM NH4OAC (pH 4).
as §1

Molecule	binding to 2-iminobiotin-agarose
B4	did not bind
B6	did not bind
B1	did not bind
B9	did not bind
B10	did not bind
B11	did not bind

same assay, conditions: FT = column flow-through fraction

Molecule	Note (Iminobiotin-agarose)
B4	To FT
B6	To FT
B1	To FT
B2	To FT
B7	To FT
B8	To FT
B9	To FT
B10	To FT
B11	To FT

same assay, conditions: Iminobiotin-agarose; binding at pH 12, elution with 50 mM NH4OAC (pH 4)

Molecule	Recovery rate (%)
B3	30
B4	0
B5	10
B6	0
B1	0
B2	0
B7	5
B8	5
B9	0
B10	0
B11	0

same assay, conditions: purification with 2-iminobiotin-agarose

Molecule	recovery rates compared with WT
B3	inferior to WT
B5	inferior to WT
B7	inferior to WT
B8	inferior to WT

assay: Subunit association by FPLC on Sephacryl S-100HR; assay type: physicochemical; conditions: FPLC
Protocol: In order to analyze the subunit association conditions of LATM2, the molecular weight of each LATM2s was measured by FPLC. Sephacryl S-100HR (manufactured by GE Healthcare) was used as a column, a Gel Filtration Calibration Kit LMW (manufactured by GE Healthcare) was used as molecular weight markers, and 50 mM potassium phosphate containing 500 mM NaCl was used as a buffer.
The positions of the peaks of eluted tetramer were defined to be 44 to 47 mL after injection of WT-TM2 as a control. The peak of an eluted monomer appeared at around 63 to 66 mL and the peak of an eluted dimer appeared at around 51 to 54 mL, from result of loading the molecular weight markers.

Molecule	share present as tetramer [%]	share present as dimer [%]
B3	100	
B8	33	67

same assay, conditions: Sephacryl S-100HR, 50 mM potassium phosphate, 500 mM NaCl

Molecule	Structure (identified by FPLC)
B3	Tetramer
B4	Tetramer
B5	Tetramer
B7	Tetramer
B8	dimer; also recorded: tetramer,
B9	Tetramer

same assay, conditions: Sephacryl S-100HR, 50 mM potassium phosphate, 500 mM NaCl; dimer peak

Molecule	Structure (identified by FPLC)
B6	dimer,
B10	dimer,

same assay, conditions: Sephacryl S-100HR, 50 mM potassium phosphate, 500 mM NaCl; monomer peak

Molecule	Structure (identified by FPLC)
B10	monomer
B11	monomer

same assay, conditions: Sephacryl S-100HR, 50 mM potassium phosphate, 500 mM NaCl; tetramer peak

Molecule	Structure (identified by FPLC)
B11	tetramer,

same assay, conditions: of the total, FPLC

Molecule	share present as monomer
B6	90%
B10	64.8%
B11	about 30%

same assay, conditions: of the total, FPLC; listed as A66R

Molecule	share present as monomer [%]
B11	30

same assay, conditions: tetramer 44 to 47 mL, dimer 51 to 54 mL, monomer 63 to 66 mL

Molecule	Sephacryl (mL), elution peak position
B3	45.14 mL
B4	45.42 mL
B5	46.24 mL
B7	45.09 mL
B8	44.69 mL and 52.30, mL
B9	46.49 mL

same assay, conditions: tetramer 44 to 47 mL, dimer 51 to 54 mL, monomer 63 to 66 mL; dimer peak

Molecule	Sephacryl (mL), elution peak position
B6	54.49, mL
B10	54.38, mL

same assay, conditions: tetramer 44 to 47 mL, dimer 51 to 54 mL, monomer 63 to 66 mL; monomer peak

Molecule	Sephacryl (mL), elution peak position [mL]
B10	67.21
B11	66.15

same assay, conditions: tetramer 44 to 47 mL, dimer 51 to 54 mL, monomer 63 to 66 mL; tetramer peak

Molecule	Sephacryl (mL), elution peak position
B11	45.50, mL
